# Measurements: US20250264455A1 (HELMHOLTZ ZENTRUM M NCHEN DEUTSCHES FORSCHUNGSZENTRUM F R …, published 2025)
# B1: BFabp-αMoon-Tag (other)
# chain: MEVQLVESGGGLVQPGGSLRLSCAASGSISSVDVMSWYRQAPGKQRELVAFITDRGRTNYKVSVKGRFTISRDNSKNMVYLQMNSLKPEDTADYLCRAESRTSWSSPSPLDVWGRGTQVTVSSGGTGGSVEAFCATWKLTNSQNFDEYMKALGVGFATRQVGNVTKPTVIISQEGDKVVIRTLSTFKNTEISFQLGEEFDETTADDRNCKSVVSLDGDKLVHIQKWDGKETNFVREIKDGKMVMTLTFGDVVAVRHYEKA
# notes: also called B-Fabp Anti-Moon-Tag
# B2: B-FABP-SpyCatcher003 (other)
# chain: MVEAFCATWKLTNSQNFDEYMKALGVGFATRQVGNVTKPTVIISQEGDKVVIRTLSTFKNTEISFQLGEEFDETTADDRNCKSVVSLDGDKLVHIQKWDGKETNFVREIKDGKMVMTLTFGDVVAVRHYEKAPPPPRTGPPPPRVTTLSGLSGEQGPSGDMTTEEDSATHIKFSKRDEDGRELAGATMELRDSSGKTISTWISDGHVKDFYLYPGKYTFVETAAPDGYEVATPIEFTVNEDGQVTVDGEATEGDAHT
# notes: also called B-FABP fused via SpyCatcher003
# B3: BFabp-FLAG (other)
# chain: VEAFCATWKLTNSQNFDEYMKALGVGFATRQVGNVTKPTVIISQEGDKVVIRTLSTFKNTEISFQLGEEFDETTADDRNCKSVVSLDGDKLVHIQKWDGKETNFVREIKDGKMVMTLTFGDVVAVRHYEKAGSGDYKDDDDK
# notes: Purified over the FLAG tag
# B4: BM3h-SpyCatcher003 (other)
# chain: MTIKEMPQPKTFGELKNLPLLNTDKPVQALMKIADELGEIFKFEAPGRVTRYLSSQRLIKEACDESRFDKNLSQALKFVRDFAGDGLFTSWTHEKNWKKAHNILLPSFSQQAMKGYHAMMVDIAVQLVQKWERLNADEHIEVPEDMTRLTLDTIGLCGFNYRFNSFYRDQPHPFITSMVRALDEAMNKLQRANPDDPAYDENKRQFQEDIKVMNDLVDKIIADRKASGEQSDDLLTHMLNGKDPETGEPLDDENIRYQIITFLIAGHETTSGLLSFALYFLVKNPHVLQKAAEEAARVLVDPVPSYKQVKQLKYVGMVLNEALRLWPTAPAFSLYAKEDTVLGGEYPLEKGDELMVLIPQLHRDKTIWGDDVEEFRPERFENPSAIPQHAFKPFGNGQRACIGQQFALHEATLVLGMMLKHFDFEDHTNYELDIKETLTLKPEGFVVKAKSKKIPLPPPPRTGPPPPRVTTLSGLSGEQGPSGDMTTEEDSATHIKFSKRDEDGRELAGATMELRDSSGKTISTWISDGHVKDFYLYPGKYTFVETAAPDGYEVATPIEFTVNEDGQVTVDGEATEGDAHT
# notes: Heme domain of cytochrome P450 BM3 fused to SpyCatcher003; also called SpyCatcher-Bm3h
# How the values were obtained:
# [1] = molecular target: T1, LifeAct-emFPv4; experiment: Clear Native PAGE of co-expressing HEK293T lysate
# T1 construct: also called emFPv4 hub
# [2] = molecular target: T2, QtEnc-SpyTag(003) (Bacillus thermotolerans (Quasibacillus …, UniProt A0A0F5HPP7 1-282)); experiment: TEM, CN-PAGE shift and Western blot after co-expression in HEK cells (SpyTag003/SpyCatcher003 isopeptide)
# T2 construct: Q. thermotolerans encapsulin shell monomer with C-terminal SpyTag003; T=4 shell of 240 subunits; expressed in HEK cells; also called QtEnc decorated with SpyTags
# [3] = molecular target: the molecule itself; experiment: native 12% Tris-Glycine gel of purified protein with BODIPY FL C16
# [4] = molecular target: T2, QtEnc-SpyTag(003); experiment: TEM and CN-PAGE after co-expression in HEK cells (SpyTag003/SpyCatcher003 isopeptide)
binder,measurement,setting,value
B1,binding result,[1],binds
B2,binding result,[2],binds
B3,binding result,[3],binds
B4,binding result,[4],binds
